Experimental findings from patent US20200010570A1 are described below.

The experiment deals with C1q (Fitzgerald, Cat. No. 32R-AC049) (UniProt P02745). Kind of experiment: ForteBio, biotinylated antibody on SA chip, C1q from 200 nM. For orientation: BLI is a label-free optical method that tracks binding on a fibre tip over time.
Chain of C1q (Fitzgerald, Cat. No. 32R-AC049) (P02745 23-245 limits assumed, chain 1 of 3): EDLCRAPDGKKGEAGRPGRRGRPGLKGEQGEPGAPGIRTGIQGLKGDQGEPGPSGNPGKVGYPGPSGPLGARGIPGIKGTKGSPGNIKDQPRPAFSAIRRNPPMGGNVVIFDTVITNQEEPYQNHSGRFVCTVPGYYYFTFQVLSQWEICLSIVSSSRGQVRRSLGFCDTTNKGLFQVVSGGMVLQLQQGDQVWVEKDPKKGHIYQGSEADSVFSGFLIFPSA
Chain of C1q (Fitzgerald, Cat. No. 32R-AC049) (P02746 28-253 limits assumed, chain 2 of 3, further chain): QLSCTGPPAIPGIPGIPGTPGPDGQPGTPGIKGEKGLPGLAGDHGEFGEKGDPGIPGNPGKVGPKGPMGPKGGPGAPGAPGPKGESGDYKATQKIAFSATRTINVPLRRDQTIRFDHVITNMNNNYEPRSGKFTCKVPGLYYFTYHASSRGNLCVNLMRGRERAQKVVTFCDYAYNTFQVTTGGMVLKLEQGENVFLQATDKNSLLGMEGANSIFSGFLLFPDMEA
Chain of C1q (Fitzgerald, Cat. No. 32R-AC049) (P02747 29-245 limits assumed, chain 3 of 3, further chain): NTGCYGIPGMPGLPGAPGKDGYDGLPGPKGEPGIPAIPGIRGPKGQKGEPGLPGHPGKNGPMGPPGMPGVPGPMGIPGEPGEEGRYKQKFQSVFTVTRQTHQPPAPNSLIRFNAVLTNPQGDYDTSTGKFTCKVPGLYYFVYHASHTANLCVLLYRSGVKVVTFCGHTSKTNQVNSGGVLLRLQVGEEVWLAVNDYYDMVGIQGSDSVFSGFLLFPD

Regarding “Tecentriq® (Atezolizumab, purchased from Roche) (antibody)”, the Kd turned out to be 1.3 nM, the koff amounted to 0.00176 s⁻¹ and the kon worked out at 1.36e+06 M⁻¹ s⁻¹.

For orientation: Kd means a measure of binding affinity in units of concentration. High values mean lower affinity, low ones higher affinity. As usually defined, the koff is the first-order rate constant of dissociation. A higher koff goes with a short-lived complex. In general, kon refers to the rate constant with which the complex forms. A lower kon goes with slower complex formation.
